For two substances, stoichiometry N results are on record in paper PMC9163089.

Experiment [1] addresses Cytosolic domain of YscV (YscVC, residues 356-704), co-expressed with YscX and YscY (Yersinia enterocolitica). The experiment is described as follows: SEC. (In gel filtration, larger molecules generally elute earlier.)
The target is the same in experiment [2]. The experiment is described as follows: crystal structure.
The target in experiment [3] is Cytosolic domain of YscV (YscVC, residues 356-704), purified alone (Yersinia enterocolitica). In words: SEC; analytical SEC of YscVC alone at 10, 25 and 100 µM initial concentration, Superdex 200 10/300GL, 20 mM Tris pH 8, 150 mM NaCl; monomer to nonamer.

What is called stoichiometry N is a count of units in the complex or per binding partner. For the substance “Cytosolic domain of YscV (YscVC, residues 356-704), co-expressed with YscX and YscY (domain or fragment)”, the stoichiometry N in experiment [1] and in experiment [2] was 9 throughout.
In the case of “Cytosolic domain of YscV (YscVC, residues 356-704), purified alone (domain or fragment)”, the stoichiometry N in experiment [3] worked out at 9.
